± gives the standard error. This sample holds only a part of the variants without activity.
B1: glmS ribozyme (parent)
chain: AUAAAAGCGCCAGAACUACAGAAAUGUAGUUGACGAGGAGGAGGUUUAUCGAAUUUUCGGCGGAUGCCUCCAAA

Columns and labels:
Settings in all cases: with glucosamine-6-phosphate
glucosamine-6-phosphate [1] = variants of: B1; experiment: self-cleavage kobs at 40 uM GlcN6P; higher = faster cleavage; RNA array
Method in brief: (§1)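 Barcoded ribozyme variants on sequenced MiSeq chips were transcribed in situ by E. coli RNA polymerase and followed at 37 °C through a hybridised Cy3 probe. Glucosamine-6-phosphate at 40 μM to 10 mM in HEPES/KCl/Mg(OAc)2 buffer was flowed in, and tiles were imaged over ~14 h. Signals were normalised to baseline and to non-cleaving reference variants, and per-tile medians were fit to one- or two-exponential decays to give kobs. Weighted Michaelis–Menten fits across concentrations gave kcat and KM.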

glucosamine-6-phosphate [2] = variants of: B1; experiment: self-cleavage kobs at 640 uM GlcN6P; higher = faster cleavage; RNA array
Method in brief: as §1

glucosamine-6-phosphate [3] = variants of: B1; experiment: self-cleavage kobs at 10000 uM GlcN6P; higher = faster cleavage; RNA array
Method in brief: as §1

glucosamine-6-phosphate [4] = variants of: B1; experiment: self-cleavage kobs at 160 uM GlcN6P; higher = faster cleavage; RNA array
Method in brief: as §1

glucosamine-6-phosphate [5] = variants of: B1; experiment: self-cleavage kobs at 2500 uM GlcN6P; higher = faster cleavage; RNA array
Method in brief: as §1

Row | Variant | self-cleavage kobs at 40 uM GlcN6P (glucosamine-6-phosphate [1]) | self-cleavage kobs at 640 uM GlcN6P (glucosamine-6-phosphate [2]) | self-cleavage kobs at 10000 uM GlcN6P (glucosamine-6-phosphate [3]) | self-cleavage kobs at 160 uM GlcN6P (glucosamine-6-phosphate [4]) | self-cleavage kobs at 2500 uM GlcN6P (glucosamine-6-phosphate [5])
1 | A6G A36C G41U | < 1e-05 s⁻¹ | < 1e-05 s⁻¹ | < 1e-05 s⁻¹ |  | 
2 | A12C G40A C58U | < 1e-05 s⁻¹ |  |  | < 1e-05 s⁻¹ | 
3 | C50G C58A C67A | 7.83e-05 ± 1.2e-05 s⁻¹ |  | 9.18e-05 ± 1.4e-05 s⁻¹ |  | 
4 | G35A U45A C61A G62C | < 1e-05 s⁻¹ |  |  |  | 
5 | A33U C67G | < 1e-05 s⁻¹ | < 1e-05 s⁻¹ |  | < 1e-05 s⁻¹ | 
6 | A42G G63A U69G | < 1e-05 s⁻¹ |  | < 1e-05 s⁻¹ |  | 
7 | U54A C70G | 6.49e-05 ± 8.1e-06 s⁻¹ | 0.00033 ± 5.7e-05 s⁻¹ | 0.000131 ± 1.5e-05 s⁻¹ | 6.78e-05 ± 1e-05 s⁻¹ | 0.000176 ± 2.2e-05 s⁻¹
8 | G32A G59C | < 1e-05 s⁻¹ | < 1e-05 s⁻¹ |  | < 1e-05 s⁻¹ | < 1e-05 s⁻¹
9 | C10U C11A | < 1e-05 s⁻¹ |  |  | < 1e-05 s⁻¹ | 
10 | G29C C34U | < 1e-05 s⁻¹ | < 1e-05 s⁻¹ | < 1e-05 s⁻¹ | < 1e-05 s⁻¹ | < 1e-05 s⁻¹
11 | A48U G60C C61U | < 1e-05 s⁻¹ | < 1e-05 s⁻¹ |  |  | 
12 | G59C U65A | < 1e-05 s⁻¹ | < 1e-05 s⁻¹ | < 1e-05 s⁻¹ | < 1e-05 s⁻¹ | 
13 | C16U A42G C61G | < 1e-05 s⁻¹ |  |  |  | 
14 | G41A U49C U56A | < 1e-05 s⁻¹ |  |  |  | 
15 | G29U U56G G62U | < 1e-05 s⁻¹ |  |  |  | 
16 | A6U G7C C8G G38U | < 1e-05 s⁻¹ | < 1e-05 s⁻¹ |  |  | 
17 | C11G U46A C67G | < 1e-05 s⁻¹ |  | < 1e-05 s⁻¹ |  | 
18 | G13C G44U | < 1e-05 s⁻¹ | < 1e-05 s⁻¹ | < 1e-05 s⁻¹ | < 1e-05 s⁻¹ | < 1e-05 s⁻¹
19 | C11U A52C | < 1e-05 s⁻¹ | < 1e-05 s⁻¹ | < 1e-05 s⁻¹ |  | < 1e-05 s⁻¹
20 | G9U C11A A36G | < 1e-05 s⁻¹ |  |  |  | 
21 | A53C C58A G60U | < 1e-05 s⁻¹ |  |  |  | 
22 | A6C C11U | < 1e-05 s⁻¹ | < 1e-05 s⁻¹ |  | < 1e-05 s⁻¹ | 
23 | G44U C58G C68U | < 1e-05 s⁻¹ | < 1e-05 s⁻¹ | < 1e-05 s⁻¹ | < 1e-05 s⁻¹ | < 1e-05 s⁻¹
24 | G43A G51C U54C C71U | < 1e-05 s⁻¹ | < 1e-05 s⁻¹ |  |  | < 1e-05 s⁻¹

Row | Variant | self-cleavage kobs at 40 uM GlcN6P (glucosamine-6-phosphate [1]) | self-cleavage kobs at 640 uM GlcN6P (glucosamine-6-phosphate [2]) | self-cleavage kobs at 10000 uM GlcN6P (glucosamine-6-phosphate [3]) | self-cleavage kobs at 160 uM GlcN6P (glucosamine-6-phosphate [4]) | self-cleavage kobs at 2500 uM GlcN6P (glucosamine-6-phosphate [5])
25 | G44C U45G C58G | < 1e-05 s⁻¹ |  |  |  | 
26 | U54G G63A A64U C70U | < 1e-05 s⁻¹ |  |  |  | 
27 | C8U G43A | < 1e-05 s⁻¹ |  |  | < 1e-05 s⁻¹ | 
28 | G7C G41U | < 1e-05 s⁻¹ |  | < 1e-05 s⁻¹ | < 1e-05 s⁻¹ | < 1e-05 s⁻¹
29 | C61A U65C C70U | < 1e-05 s⁻¹ |  | < 1e-05 s⁻¹ |  | 
30 | A14G G59C | < 1e-05 s⁻¹ | < 1e-05 s⁻¹ |  |  | 
31 | G7C U31G G43A U55G C68U | < 1e-05 s⁻¹ |  |  |  | 
32 | A6G A39G C68A C70G | < 1e-05 s⁻¹ |  |  |  | 
33 | A6G A12C U45G C58U G59C G62A C68G | < 1e-05 s⁻¹ |  | < 1e-05 s⁻¹ |  | 
34 | C10G G62A | < 1e-05 s⁻¹ | < 1e-05 s⁻¹ | < 1e-05 s⁻¹ | < 1e-05 s⁻¹ | 
35 | C16G A39G G51U U55A | < 1e-05 s⁻¹ | < 1e-05 s⁻¹ |  |  | 
36 | C8U C68A | < 1e-05 s⁻¹ | < 1e-05 s⁻¹ |  |  | < 1e-05 s⁻¹
37 | G9C C10A U56A | < 1e-05 s⁻¹ | < 1e-05 s⁻¹ |  |  | < 1e-05 s⁻¹
38 | G40C G43C | < 1e-05 s⁻¹ |  | < 1e-05 s⁻¹ | < 1e-05 s⁻¹ | < 1e-05 s⁻¹
39 | G40C G43A | < 1e-05 s⁻¹ |  | < 1e-05 s⁻¹ |  | 
40 | G9A C71G | < 1e-05 s⁻¹ | < 1e-05 s⁻¹ | < 1e-05 s⁻¹ | < 1e-05 s⁻¹ | < 1e-05 s⁻¹
41 | A39C G62A | < 1e-05 s⁻¹ | < 1e-05 s⁻¹ | < 1e-05 s⁻¹ |  | 
42 | G41U C50U G59U G66U | < 1e-05 s⁻¹ |  |  |  | 
43 | C50U A52C | < 1e-05 s⁻¹ |  | < 1e-05 s⁻¹ | < 1e-05 s⁻¹ | < 1e-05 s⁻¹
44 | G66A C70G | 8.19e-05 ± 1.3e-05 s⁻¹ | 0.000305 ± 7.2e-05 s⁻¹ | 0.00273 ± 0.00055 s⁻¹ | 7.92e-05 ± 2.2e-05 s⁻¹ | 0.000267 ± 7.7e-05 s⁻¹
45 | G9A G13A | < 1e-05 s⁻¹ | < 1e-05 s⁻¹ |  | < 1e-05 s⁻¹ | < 1e-05 s⁻¹
46 | A36G A42U | < 1e-05 s⁻¹ | < 1e-05 s⁻¹ | < 1e-05 s⁻¹ | < 1e-05 s⁻¹ | 
47 | U30G A53G | 0.000307 ± 5.3e-05 s⁻¹ | 0.00172 ± 0.0004 s⁻¹ | 0.0151 ± 0.0037 s⁻¹ | 0.00064 ± 0.00013 s⁻¹ | 0.00534 ± 0.00076 s⁻¹

From the supplement of paper PMC7125110
